From patent publication US20180140673A1 (Novo Nordisk, published 2018)
Read-outs that look alike come from different tables or passages of the source.

Assays:
Test in all cases: cell-based or functional assay
[1] = target: T1, FGF receptor/BKL complex on HEK293 cells overexpressing human beta-klotho (BKL) (human, UniProt Q86Z14 1-1044)
[2] = target: T2, FGFR1c receptor/BKL complex on differentiated mouse 3T3-L1 adipocytes (mouse, UniProt P16092 22-822; Q99N32 1-1043)
[3] = target: T1, FGF receptor/BKL complex on HEK293 …; remark: listed apart in the source
[4] = target: T1, FGF receptor/BKL complex on HEK293 …; remark: listed apart in the source
[5] = target: T2, FGFR1c receptor/BKL complex on …; remark: listed apart in the source

T1 sequence (Q86Z14 whole entry, one chain of several): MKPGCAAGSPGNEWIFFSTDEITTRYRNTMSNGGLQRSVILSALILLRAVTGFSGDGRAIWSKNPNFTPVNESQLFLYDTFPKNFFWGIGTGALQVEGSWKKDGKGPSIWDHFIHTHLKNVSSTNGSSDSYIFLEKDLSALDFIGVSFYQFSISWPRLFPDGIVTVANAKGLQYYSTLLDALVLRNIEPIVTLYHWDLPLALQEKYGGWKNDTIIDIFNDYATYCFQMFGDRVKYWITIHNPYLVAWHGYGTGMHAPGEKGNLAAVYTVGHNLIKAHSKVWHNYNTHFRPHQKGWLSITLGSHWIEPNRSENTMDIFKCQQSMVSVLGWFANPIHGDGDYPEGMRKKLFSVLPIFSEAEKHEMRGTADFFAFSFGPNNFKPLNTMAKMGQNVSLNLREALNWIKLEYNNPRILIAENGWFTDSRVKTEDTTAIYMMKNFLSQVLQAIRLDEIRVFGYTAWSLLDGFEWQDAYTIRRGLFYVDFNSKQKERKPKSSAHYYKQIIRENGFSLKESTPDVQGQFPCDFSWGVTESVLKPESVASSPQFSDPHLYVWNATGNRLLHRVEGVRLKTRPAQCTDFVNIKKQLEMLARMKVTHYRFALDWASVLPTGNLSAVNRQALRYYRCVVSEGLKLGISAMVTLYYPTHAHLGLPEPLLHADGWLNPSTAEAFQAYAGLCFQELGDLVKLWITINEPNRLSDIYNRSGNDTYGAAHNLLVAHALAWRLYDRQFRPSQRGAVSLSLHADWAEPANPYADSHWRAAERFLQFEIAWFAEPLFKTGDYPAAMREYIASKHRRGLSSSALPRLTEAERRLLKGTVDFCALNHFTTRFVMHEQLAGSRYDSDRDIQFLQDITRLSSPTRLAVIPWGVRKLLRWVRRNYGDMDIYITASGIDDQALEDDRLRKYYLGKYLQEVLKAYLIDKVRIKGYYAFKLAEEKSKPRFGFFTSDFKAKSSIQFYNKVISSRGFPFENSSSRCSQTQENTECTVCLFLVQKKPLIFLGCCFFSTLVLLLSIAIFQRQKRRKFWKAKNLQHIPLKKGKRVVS
T2 sequence (P16092 22-822, chain 1 of 2): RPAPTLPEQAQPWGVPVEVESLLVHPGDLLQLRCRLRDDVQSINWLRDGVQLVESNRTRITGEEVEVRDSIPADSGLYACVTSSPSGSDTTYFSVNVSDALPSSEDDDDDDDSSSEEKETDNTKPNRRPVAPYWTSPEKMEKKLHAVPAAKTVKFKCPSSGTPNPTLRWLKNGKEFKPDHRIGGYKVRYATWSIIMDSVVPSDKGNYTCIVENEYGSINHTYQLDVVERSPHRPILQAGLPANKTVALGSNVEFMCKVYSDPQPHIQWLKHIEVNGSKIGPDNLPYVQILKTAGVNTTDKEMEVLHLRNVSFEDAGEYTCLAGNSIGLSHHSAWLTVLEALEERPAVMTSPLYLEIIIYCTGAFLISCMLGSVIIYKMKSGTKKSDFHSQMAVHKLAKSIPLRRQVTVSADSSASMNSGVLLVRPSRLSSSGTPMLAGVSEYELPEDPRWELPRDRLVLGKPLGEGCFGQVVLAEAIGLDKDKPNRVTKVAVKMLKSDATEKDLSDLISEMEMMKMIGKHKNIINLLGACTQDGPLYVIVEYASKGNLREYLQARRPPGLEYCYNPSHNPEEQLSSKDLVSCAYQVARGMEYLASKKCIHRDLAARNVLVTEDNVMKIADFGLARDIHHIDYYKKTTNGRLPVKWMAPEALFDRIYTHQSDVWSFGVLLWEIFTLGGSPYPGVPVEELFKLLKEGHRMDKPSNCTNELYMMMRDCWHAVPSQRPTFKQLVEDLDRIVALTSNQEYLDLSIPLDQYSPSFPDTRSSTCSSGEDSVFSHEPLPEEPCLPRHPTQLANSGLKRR
T2 sequence (Q99N32 whole entry, chain 2 of 2): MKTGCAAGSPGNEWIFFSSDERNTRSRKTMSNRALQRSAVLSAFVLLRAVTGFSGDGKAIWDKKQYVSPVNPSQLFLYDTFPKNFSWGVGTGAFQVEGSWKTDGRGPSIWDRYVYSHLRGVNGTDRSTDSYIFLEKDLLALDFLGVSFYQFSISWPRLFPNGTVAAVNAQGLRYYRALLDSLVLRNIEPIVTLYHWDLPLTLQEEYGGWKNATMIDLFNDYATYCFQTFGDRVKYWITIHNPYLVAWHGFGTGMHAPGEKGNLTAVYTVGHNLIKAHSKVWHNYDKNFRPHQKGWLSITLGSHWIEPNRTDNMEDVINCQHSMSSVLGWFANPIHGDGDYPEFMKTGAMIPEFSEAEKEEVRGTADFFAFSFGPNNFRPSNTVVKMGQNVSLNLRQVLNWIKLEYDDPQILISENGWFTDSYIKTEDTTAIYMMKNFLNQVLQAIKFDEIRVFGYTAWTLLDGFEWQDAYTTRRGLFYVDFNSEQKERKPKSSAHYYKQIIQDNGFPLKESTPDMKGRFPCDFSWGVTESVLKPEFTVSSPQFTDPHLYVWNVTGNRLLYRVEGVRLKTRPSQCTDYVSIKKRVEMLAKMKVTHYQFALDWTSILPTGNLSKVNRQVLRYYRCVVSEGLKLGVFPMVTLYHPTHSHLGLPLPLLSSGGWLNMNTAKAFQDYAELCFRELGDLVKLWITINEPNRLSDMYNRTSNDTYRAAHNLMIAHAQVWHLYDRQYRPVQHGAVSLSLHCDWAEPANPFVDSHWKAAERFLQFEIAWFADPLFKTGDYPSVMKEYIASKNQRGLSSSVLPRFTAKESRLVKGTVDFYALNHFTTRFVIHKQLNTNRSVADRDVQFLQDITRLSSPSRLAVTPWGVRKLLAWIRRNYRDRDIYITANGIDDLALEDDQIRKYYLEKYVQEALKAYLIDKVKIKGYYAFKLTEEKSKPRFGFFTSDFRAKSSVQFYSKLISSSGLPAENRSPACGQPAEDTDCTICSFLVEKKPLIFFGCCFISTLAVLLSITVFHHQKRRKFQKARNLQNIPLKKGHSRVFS

B1: MetFGF21 (ligand)
chain: MHPIPDSSPLLQFGGQVRQRYLYTDDAQQTEAHLEIREDGTVGGAADQSPESLLQLKALKPGVIQILGVKTSRFLCQRPDGALYGSLHFDPEACSFRELLLEDGYNVYQSEAHGLPLHLPGNKSPHRDPAPRGPARFLPLPGLPPALPEPPGILAPQPPDVGSSDPLSMVGPSQGRSPSYAS
EC50 (nM), pERK, HEK293/BKL cells [1]: 1.8 nM
Glucose uptake EC50 (nM), 3T3-L1 adipocytes [2]: 1.2 nM

B2: Ala[Gln121,Leu168,Cys171]FGF21 (ligand)
chain: AHPIPDSSPLLQFGGQVRQRYLYTDDAQQTEAHLEIREDGTVGGAADQSPESLLQLKALKPGVIQILGVKTSRFLCQRPDGALYGSLHFDPEACSFRELLLEDGYNVYQSEAHGLPLHLPGQKSPHRDPAPRGPARFLPLPGLPPALPEPPGILAPQPPDVGSSDPLSLVGCSQGRSPSYAS
EC50 (nM), pERK, HEK293/BKL cells [3]: 8 nM

B3: S{Beta-181}-[2-[2-[[2-[2-[2-[[2-[2-[2-[[(4S)-4-carboxy-4-(17-carboxyheptadecanoyl-amino)butanoyl]amino]ethoxy]ethoxy]acetyl]amino]ethoxy]ethoxy]acetyl]amino]-et … (ligand)
chain: MHPIPDSSPLLQFGGQVRQRYLYTDDAQQTEAHLEIREDGTVGGAADQSPESLLQLKALKPGVIQILGVKTSRFLCQRPDGALYGSLHFDPEACSFRELLLEDGYNVYQSEAHGLPLHLPGNKSPHRDPAPRGPARFLPLPGLPPALPEPPGILAPQPPDVGSSDPLSMVGPSQGRSPSYAC
modifications: Cys181 (numbering of mature human FGF21): side chain on the sulfur atom; protractor C18 diacid; reagent of Example 4.5
EC50 (0.1% HSA) (nM), pERK, HEK293/BKL cells [4]: 71 nM
EC50 (nM), pERK, HEK293/BKL cells [4]: 16 nM
Glucose uptake EC50 (nM), 3T3-L1 adipocytes [5]: 37 nM
